Experimental findings from paper PMC9133112, “The structural basis of Cdc7-Dbf4 kinase dependent targeting and phosphorylation of the MCM2-7 double hexamer” (Nature Communications, 2022) are described below.

For the assay, the target named is T1, MCM2-7 double hexamer (Saccharomyces cerevisiae, UniProt P29469 1-868; P24279 1-971; P30665 1-933; P29496 1-775; P53091 1-1017; P38132 …).
T1 construct: Mcm2, Saccharomyces cerevisiae, full length; Mcm3, Saccharomyces cerevisiae, full length; Mcm4, Saccharomyces cerevisiae, full length; Mcm5, Saccharomyces cerevisiae, full length; Mcm6, Saccharomyces cerevisiae, full length; Mcm7, Saccharomyces cerevisiae, full length; Two head-to-head MCM2-7 hexamers assembled on origin DNA; becomes (thio-)phosphorylated by DDK on Mcm2, Mcm4, Mcm6 (and Mcm7) …
As to the kind of experiment: cryo-EM structure; MD-(ATPγS): 250 nM DH released from beads by AluI + 750 nM DDK, 10 min 24 °C, buffer C with 3 mM ATPγS; GraFix glycerol gradient with glutaraldehyde; states I-III. As to conditions: both partners purified.

T1 sequence (P29469 whole entry, chain 1 of 4): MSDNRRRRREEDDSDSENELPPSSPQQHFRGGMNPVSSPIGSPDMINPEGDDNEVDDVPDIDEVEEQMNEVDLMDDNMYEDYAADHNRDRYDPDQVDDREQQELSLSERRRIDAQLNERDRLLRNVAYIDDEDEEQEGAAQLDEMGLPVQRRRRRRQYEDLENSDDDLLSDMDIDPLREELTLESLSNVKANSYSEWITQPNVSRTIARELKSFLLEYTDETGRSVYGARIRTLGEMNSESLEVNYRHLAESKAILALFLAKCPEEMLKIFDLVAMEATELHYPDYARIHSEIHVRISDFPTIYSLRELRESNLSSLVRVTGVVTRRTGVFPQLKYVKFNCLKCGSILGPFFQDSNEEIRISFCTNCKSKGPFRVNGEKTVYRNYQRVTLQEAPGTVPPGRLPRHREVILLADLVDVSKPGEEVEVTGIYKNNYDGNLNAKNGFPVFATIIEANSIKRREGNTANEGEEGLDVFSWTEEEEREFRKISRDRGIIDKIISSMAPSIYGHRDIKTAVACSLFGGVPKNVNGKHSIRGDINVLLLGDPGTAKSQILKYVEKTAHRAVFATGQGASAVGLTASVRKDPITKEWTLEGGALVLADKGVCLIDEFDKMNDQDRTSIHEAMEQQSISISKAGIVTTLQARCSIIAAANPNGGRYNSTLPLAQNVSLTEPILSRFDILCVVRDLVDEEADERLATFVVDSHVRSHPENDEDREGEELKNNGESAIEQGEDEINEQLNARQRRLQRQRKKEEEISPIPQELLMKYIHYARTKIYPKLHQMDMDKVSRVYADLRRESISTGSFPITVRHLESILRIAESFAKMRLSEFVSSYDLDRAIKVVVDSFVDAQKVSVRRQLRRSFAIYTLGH
T1 sequence (P24279 whole entry, chain 2 of 4): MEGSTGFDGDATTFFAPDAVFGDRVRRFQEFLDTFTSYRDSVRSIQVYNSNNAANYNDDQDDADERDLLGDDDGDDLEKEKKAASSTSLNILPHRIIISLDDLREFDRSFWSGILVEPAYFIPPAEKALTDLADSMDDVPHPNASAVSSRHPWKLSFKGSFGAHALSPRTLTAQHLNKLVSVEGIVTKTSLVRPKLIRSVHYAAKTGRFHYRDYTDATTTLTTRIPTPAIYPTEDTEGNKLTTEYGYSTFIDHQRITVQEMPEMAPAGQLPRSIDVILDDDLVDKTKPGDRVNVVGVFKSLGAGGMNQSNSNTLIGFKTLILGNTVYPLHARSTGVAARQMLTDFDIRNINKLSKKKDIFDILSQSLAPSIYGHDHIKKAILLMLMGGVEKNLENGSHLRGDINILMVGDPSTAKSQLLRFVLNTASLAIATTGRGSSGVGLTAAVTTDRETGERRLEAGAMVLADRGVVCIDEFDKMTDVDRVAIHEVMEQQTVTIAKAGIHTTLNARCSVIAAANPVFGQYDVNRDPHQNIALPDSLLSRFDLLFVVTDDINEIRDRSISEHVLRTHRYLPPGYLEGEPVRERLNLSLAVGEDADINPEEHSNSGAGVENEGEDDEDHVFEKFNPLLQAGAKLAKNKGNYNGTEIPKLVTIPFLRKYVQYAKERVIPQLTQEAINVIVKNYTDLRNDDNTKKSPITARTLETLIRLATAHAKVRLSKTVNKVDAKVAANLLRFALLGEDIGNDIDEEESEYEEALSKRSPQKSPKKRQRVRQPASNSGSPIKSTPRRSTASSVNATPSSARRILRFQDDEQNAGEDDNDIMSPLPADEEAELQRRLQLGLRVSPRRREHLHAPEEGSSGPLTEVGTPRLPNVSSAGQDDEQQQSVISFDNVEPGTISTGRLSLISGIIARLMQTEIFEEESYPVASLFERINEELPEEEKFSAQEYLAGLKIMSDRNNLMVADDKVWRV
T1 sequence (P29496 whole entry, chain 4 of 4): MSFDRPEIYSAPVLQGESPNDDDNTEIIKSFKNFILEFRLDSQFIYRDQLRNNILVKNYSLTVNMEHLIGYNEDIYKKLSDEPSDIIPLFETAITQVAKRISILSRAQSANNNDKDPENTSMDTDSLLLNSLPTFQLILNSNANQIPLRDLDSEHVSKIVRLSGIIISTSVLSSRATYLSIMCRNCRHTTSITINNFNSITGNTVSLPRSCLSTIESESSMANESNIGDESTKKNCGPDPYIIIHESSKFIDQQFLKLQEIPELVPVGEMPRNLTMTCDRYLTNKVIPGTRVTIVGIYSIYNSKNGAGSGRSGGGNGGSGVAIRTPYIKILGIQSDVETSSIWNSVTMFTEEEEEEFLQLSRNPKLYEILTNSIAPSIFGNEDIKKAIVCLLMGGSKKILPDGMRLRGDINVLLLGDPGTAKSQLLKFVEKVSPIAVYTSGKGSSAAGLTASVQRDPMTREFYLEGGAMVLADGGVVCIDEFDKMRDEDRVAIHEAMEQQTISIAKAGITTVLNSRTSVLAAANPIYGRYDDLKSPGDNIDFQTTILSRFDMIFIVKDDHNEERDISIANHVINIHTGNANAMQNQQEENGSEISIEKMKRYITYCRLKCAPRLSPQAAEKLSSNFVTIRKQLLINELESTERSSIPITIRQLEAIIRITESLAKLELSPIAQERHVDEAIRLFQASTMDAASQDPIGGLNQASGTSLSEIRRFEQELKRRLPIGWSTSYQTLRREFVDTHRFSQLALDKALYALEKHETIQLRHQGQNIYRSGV
T1 sequence (P53091 whole entry, chain 5 of 4): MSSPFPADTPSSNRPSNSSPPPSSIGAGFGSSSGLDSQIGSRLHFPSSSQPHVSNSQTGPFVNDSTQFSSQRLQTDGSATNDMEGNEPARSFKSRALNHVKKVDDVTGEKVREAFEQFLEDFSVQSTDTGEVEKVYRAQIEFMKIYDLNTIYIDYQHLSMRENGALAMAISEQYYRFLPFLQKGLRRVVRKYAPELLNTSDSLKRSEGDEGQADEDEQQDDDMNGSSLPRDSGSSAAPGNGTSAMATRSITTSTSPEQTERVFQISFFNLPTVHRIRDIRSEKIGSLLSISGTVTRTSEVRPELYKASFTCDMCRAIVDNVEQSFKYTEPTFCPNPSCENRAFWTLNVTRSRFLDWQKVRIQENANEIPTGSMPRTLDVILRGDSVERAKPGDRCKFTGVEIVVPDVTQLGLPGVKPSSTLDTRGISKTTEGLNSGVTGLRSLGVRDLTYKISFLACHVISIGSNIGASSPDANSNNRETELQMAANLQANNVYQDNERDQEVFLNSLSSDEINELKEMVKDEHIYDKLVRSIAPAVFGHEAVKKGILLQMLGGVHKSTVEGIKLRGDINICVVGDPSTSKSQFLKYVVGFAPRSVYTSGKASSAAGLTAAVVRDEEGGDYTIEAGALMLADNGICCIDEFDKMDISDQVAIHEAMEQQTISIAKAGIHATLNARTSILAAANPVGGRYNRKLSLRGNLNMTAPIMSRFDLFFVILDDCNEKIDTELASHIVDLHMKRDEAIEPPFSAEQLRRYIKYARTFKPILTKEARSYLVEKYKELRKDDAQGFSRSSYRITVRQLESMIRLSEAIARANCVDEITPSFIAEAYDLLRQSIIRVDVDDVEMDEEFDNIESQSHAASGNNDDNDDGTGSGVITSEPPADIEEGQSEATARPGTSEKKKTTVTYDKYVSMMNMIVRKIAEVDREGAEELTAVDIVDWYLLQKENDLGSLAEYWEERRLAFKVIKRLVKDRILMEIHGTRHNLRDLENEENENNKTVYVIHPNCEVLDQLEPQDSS

B1: Dbf4-dependent Cdc7 kinase (DDK), wild type (complex, Saccharomyces cerevisiae)
chain 1: MTSKTKNIDDIPPEIKEEMIQLYHDLPGIENEYKLIDKIGEGTFSSVYKAKDITGKITKKFASHFWNYGSNYVALKKIYVTSSPQRIYNELNLLYIMTGSSRVAPLCDAKRVRDQVIAVLPYYPHEEFRTFYRDLPIKGIKKYIWELLRALKFVHSKGIIHRDIKPTNFLFNLELGRGVLVDFGLAEAQMDYKSMISSQNDYDNYANTNHDGGYSMRNHEQFCPCIMRNQYSPNSHNQTPPMVTIQNGKVVHLNNVNGVDLTKGYPKNETRRIKRANRAGTRGFRAPEVLMKCGAQSTKIDIWSVGVILLSLLGRRFPMFQSLDDADSLLELCTIFGWKELRKCAALHGLGFEASGLIWDKPNGYSNGLKEFVYDLLNKECTIGTFPEYSVAFETFGFLQQELHDRMSIEPQLPDPKTNMDAVDAYELKKYQEEIWSDHYWCFQVLEQCFEMDPQKRSSAEDLLKTPFFNELNENTYLLDGESTDEDDVVSSSEADLLDKDVLLISE
chain 2: MVSPTKMIIRSPLKETDTNLKHNNGIAASTTAAGHLNVFSNDNNCNNNNTTESFPKKRSLERLELQQQQHLHEKKRARIERARSIEGAVQVSKGTGLKNVEPRVTPKELLEWQTNWKKIMKRDSRIYFDITDDVEMNTYNKSKMDKRRDLLKRGFLTLGAQITQFFDTTVTIVITRRSVENIYLLKDTDILSRAKKNYMKVWSYEKAARFLKNLDVDLDHLSKTKSASLAAPTLSNLLHNEKLYGPTDRDPRTKRDDIHYFKYPHVYLYDLWQTWAPIITLEWKPQELTNLDELPYPILKIGSFGRCPFIGDRNYDESSYKRVVKRYSRDKANKKYALQLRALFQYHADTLLNTSSVNDQTKNLIFIPHTCNDSTKSFKKWMQEKAKNFEKTELKKTDDSAVQDVRNEHADQTDEKNSILLNETETKEPPLKEEKENKQSIAEESNKYPQRKELAATPKLNHPVLATFARQETEEVPDDLCTLKTKSRQAFEIKASGAHQSNDVATSFGNGLGPTRASVMSKNMKSLSRLMVDRKLGVKQTNGNNKNYTATIATTAETSKENRHRLDFNALKKDEAPSKETGKDSAVHLETNRKPQNFPKVATKSVSADSKVHNDIKITTTESPTASKKSTSTNVTLHFNAQTAQTAQPVKKETVKNSGYCENCRVKYESLEQHIVSEKHLSFAENDLNFEAIDSLIENLRFQI
notes: Cdc7 serine/threonine kinase, Saccharomyces cerevisiae, full length; Dbf4 (dumbbell former 4), Saccharomyces cerevisiae, full length; An MBP tag was cleaved with PreScission Protease; Treated with lambda phosphatase during purification; autophosphorylates (thio-phosphorylates with ATPγS) in the assays; also called Cdc7-Dbf4; WT DDK; source: budding yeast cells, purified (amylose resin, lambda …)
Take B1: the “stoichiometry N” value is 2 DDK per MCM2-7 double hexamer.
